# The domain aggregation screens of Martell et al. (2025)
# Assay: soluble fraction after stress (log2 fold change); higher = more stays soluble; pooled small domains, quantitative proteomics
# Conditions: stress: 50 degC
# Procedure, shortened: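 Custom libraries of small protein domains were pooled and measured in a high-throughput format, with quantitative proteomics as the read-out. Each library was stressed at 50°C. The value is the log2 fold change in the amount of each protein that stays soluble after stress, used as a measure of aggregation propensity; higher values mean more of the protein stays soluble.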
row,Sequence,soluble fraction (log2)
1,HMRGDEDTGVWPTPMKRAYIDSLLKGYPTGVTMIVKPPGASHTTKWMILDGANRARALRDFMNDEFMI,-0.163
2,HMQGEVVTNRSVIDMSRAGLSADIIRAKILRSDTNFDVTAKALIELKESGVPDDIIALMLERADS,0.128
3,HMERNAEDFAAKYQEIYQDMFRFALYTLKNRQEAEDVVSETVLDAWKGIEGLKNESAFSAWMFRILVNK,0.152
4,HMRKSNADALDGKTGIVKEEIKTGGYGYVGIDGDMWRSISESGEAIPAGTKVVVISHESIILTVKPA,-0.315
5,HMLAYQRTYEKILEDLRNDVYPVNSLLPPEPKLEEIYHVSRTTVRRAIAQLADEGYVKVKQGYGTVVLKN,-0.339
6,HMNTWVEIFRAEDQGQIRDASLVLLAVKVAHRVDMNSSSAPWSLMVPAQDQQRAHHELTTYWQENAH,-1.43
7,HMGASGVEVPDVAGMSTAQAVSSLEQKGFVVNRTESYDAGVEKGNVISQSPEGGTKAPNGSAVTIRISQGA,0.428
8,HMEEEVKVPKIKGLTEAEAKAKLKSEGLESGTARSAYSDTVEEGHIISQSIQEGTKVPKGTAVSYEVSKGK,0.17
9,HMQAPVDPIVLGKMGSSYGIRGWLRVFSSTEDAESIFDYQPWFIQKAGQWQQVQLESWKHHNQDMIIKLN,0.0749
10,HMSKPIYSELLREIRSGDVKELTLIPQRREVLVEYSDGRKATVSILANDQQVLRTAESAGVPLTVK,-0.0265
11,HMESADEESNALMYDGLLAMRGKRYEVALEFFDALVKHDPDFAEGWNKRATVLYLLGRYERSIADIKQVLA,-0.0654
12,HMDRSVTAAELRLAAMDLLARREHGSQELEAKLSRRFHKRHYDVELLRSVIEQLTVEGLLSDERFAVS,-0.154
13,HMGMTTSILDDVIGMGPKRKKALLKAFGSFGALRNATLEEIKQTHTVPEQVAEDVYAVLVQYNSKSE,-0.233
14,HMEDQLDSLKDIIYDYLENNELYYNDLQEFKKIIIENMEFIHPNLNHKLIDNNFFKLINFKLEYNF,-0.0455
15,HMVNYKEILRLSAEGNSQRQIAAGSGNSRNTVIEVLEAARARGITWPLDEPVTNEQLEAILFPNRY,0.134
16,HMPEKNQITHLIRLIDDRDEFVRKRVREQLIKLGEDAIPFLEMAAKTENLEIQRIASEIIQAIIPRQ,-0.13
17,HMARLAGVDLPREKRIEIGLTYIYGIGLARSQEILKKAGINPDIRVKDLTDEQEQAIRNAMDGYIVEGDL,-0.148
18,HMQDVVFTVDKDQTGAEIGDMLYEKGIISSPTTFRLALRLTGSMDKLQQGYYQIPQNASLRQVIALLQKG,-0.393
19,HMNKKLEMKIEQLDLSVRLFNSLKRSGIYTVAQIIKLTEEDVMRFRSLGRKSFKELKEKLSEHGLEFE,-2.15

row,Sequence,soluble fraction (log2)
1,HMGTGELLVHVIGAVHSPGVVRLPTGARVVDAIDAAGGAREDAQTEQLNLARLVDDGEQVRVPVVGESVD,-0.0181
2,HMISKQQRQALILDIIQKQSITSQEALLTELQRHHVMTTQTTVSRDIRALGIVRIKDVNGELSYQQLQ,-2.5
3,HMNTPLYLKIREQIFDALRSGRWAANDPLPSETKLASEFEVSQGTIRKAIDDLVAQNILYRHQGRGTFIRR,-0.5
4,HMLDLSDFEVVRDLYLSEQIWNVGDLIIARSKKDDTYKAWEIIRKGTNYVTGIDESHKVEKIWLHDILI,-1.4
5,HMSVSEAELAEKYHADDLEALKSGKLHEFQENLIDRNGKKYTVQTMKDILTLSDGTRLLLGIGLD,0.174
6,HMFYWTDLIGLDVINTADERLGKVVGLIETGANAVLRVMGDDQVERLLPFGSAVVLTVEKEAGQIRVEW,-0.89
7,HMNVEKLREMYPEGTKIILQEMQGESRMAKGLKGTVTHVDDAGQIHMKWENGSSLVLNVEVDTFKKIE,0.0915
8,HMGMETQLSPKEKSIYTIIQNRPNIQSGEVSEKLAIPLPTVKRILSDLINKGLIEKQGSGRNVSYTI,0.254
9,HMGIQYVASGHYARMETDAQGVSRLFPPESGAPDESDRLAALSPEVLTRLILPLGDFAPEDVEEMAVD,0.102
10,HMFPATAPQLKAVHAILGKQGISDELDKLARVNEWLVGLNKEPVAAISELDKHTTSGLIDHLQGELNE,0.282
11,HMNENNFIVAMRERLAQFIETSGTSQSRIAKELGVSKSTVSLFLGGTYGGNNQELARNLEQLLSMGAARR,-0.96
12,HMRPTAWEQVSRHIDQHGSIGNTEVRKAMETENVLAASKQIKKWLEQGLLIILNPTAGTRARRYSKPNM,-0.287
13,HMTDFSDLSFKYNSEEKDVLNSINLKINGGEMTSLVGHSGAGKTTILNLIPRFYEKSKGDISIDGQSIY,-0.0832
14,HMDLPDTLSMPNALKVLEDNGFPTSKAKLYKMTSQEQIPFMKYGNKLVFSRKALIEWAHKQLV,-1.1
15,HMIEGETPEQTMERVSKDPEIVQILQDPVMQGILAQARENPAALQDHMKNPEVYKKINMLIAAGVIRT,0.0669
16,HMSVGDLLENLIRETRAQFSAPPESLGVAEKRRFVALLSQKGGFLLKGAVSRAASVLGVSEQTVYRYLKDS,-0.218
17,HMKQYVEPASETEKMVVELWEKVLLTEKIGMHDDFFELGGHSLKAMRLISLYHQEFNVRLSLKSLFEKLK,-0.121
18,HMLVLAENMDVIFTRRTLDDHVVVDYKTTIGEMVKNDEIKGENMDELISAVEKDGYELVSSTSGEIIFLND,-1.2
19,HMIIIMKKSATNSEVRKVIERAEKEGLTVQVNQLEKQQVLGLVGDTRLIQDVAFLRYEGVENVERI,-0.776
